{"source": "patent US20060024296A1", "about": "(AbbVie / Abbott, published 2006)", "binders": {"B1": {"name": "Luc34 (antibody, IgG1, V domains shown)", "VH": "QVQLQQSGAELARPGASVKLSCKASGYTFTSYWMQWVKQRPGQGLEWIGAIYPGDGDTRYTQKFKGKATLTADKSSSTAYMQLSSLASEDSAVYYCARGKVYYGSNPFAYWGQGTLVTVSA", "VL": "DIQMTQSSSYLSVSLGGRVTITCKASDHINNWLAWYQQKPGNAPRLLISGATSLETGVPSRFSGSGSGKDYTLSITSLQTEDVATYYCQQYWSTPWTFGGGTKLEIK", "notes": "subclone Luc34.1 used in BIAcore; also called Luc34-1; Luc34-3"}, "B2": {"name": "Luc69 (antibody, V domains shown)", "VH": "QVQLQQSGPELVKPGASVKISCKASGYAFSNSWMNWVKQRPGQGLEWIGRIYPGDGDTKSNGKFKGKATLTADKSSRAAYMQLSSLTSVDSAVYFCARSTMIMTGAMDYWGQGTSVTVSS", "VL": "DIVMTQSHKFMSTSVGDRVIITCKASQDVSTAVAWYQQKPGQSPKLLIYSASFRYTGVPDRFTGSGSGTDFTFTVSSVQAEDLAVYYCQQHYSTPPYTFGGGTKLEIK", "notes": "mouse monoclonal"}, "B3": {"name": "Luc63 (antibody, IgG2a, V domains shown)", "VH": "EVKLLESGGGLVQPGGSLKLSCAASGFDFSRYWMSWVRQAPGKGLEWIGEINPDSSTINYTPSLKDKFIISRDNAKNTLYLQMSKVRSEDTALYYCARPDGNYWYFDVWGAGTTVTVSS", "VL": "DIVMTQSHKFMSTSVGDRVSITCKASQDVGIAVAWYQQKPGQSPKLLIYWASTRHTGVPDRFTGSGSGTDFTLTISNVQSEDLADYFCQQYSSYPYTFGGGTKLEIK", "notes": "mouse monoclonal, IgG2a; also called Lu 63; Luc63-1"}, "B4": {"name": "HuLuc63 (antibody, human IgG1, V domains shown)", "VH": "EVQLVESGGGLVQPGGSLRLSCAASGFDFSRYWMSWVRQAPGKGLEWIGEINPDSSTINYAPSLKDKFIISRDNAKNSLYLQMNSLRAEDTAVYYCARPDGNYWYFDVWGQGTLVTVSS", "VL": "DIQMTQSPSSLSASVGDRVTITCKASQDVGIAVAWYQQKPGKVPKLLIYWASTRHTGVPDRFSGSGSGTDFTLTISSLQPEDVATYYCQQYSSYPYTFGQGTKVEIK", "notes": "human IgG1/κ, transiently expressed in 293-H cells; also called humanized Luc63; HuLuc63 IgG1/κ antibody"}, "B5": {"name": "Luc90 (antibody, IgG2b, V domains shown)", "VH": "QVQLQQPGAELVRPGASVKLSCKASGYSFTTYWMNWVKQRPGQGLEWIGMIHPSDSETRLNQKFKDKATLTVDKSSSTAYMQLSSPTSEDSAVYYCARSTMIATRAMDYWGQGTSVTVSS", "VL": "DIVMTQSQKSMSTSVGDRVSITCKASQDVITGVAWYQQKPGQSPKLLIYSASYRYTGVPDRFTGSGSGTDFTFTISNVQAEDLAVYYCQQHYSTPLTFGAGTKLELK", "notes": "mouse monoclonal, IgG2b; subclone Luc90.H1 used in BIAcore; also called Luc90-H1, D9; Luc90.H1"}}, "key": {"[1]": {"target": "T1, human CS1 (native, on K562 and Daudi cells) (human, UniProt Q9NQ25 23-335)", "T1 construct": "K562 and Daudi cells 'are known to express native CS1'; also called SLAMF7; CRACC", "assay": "FACS, K562 cells"}, "[2]": {"target": "T1, human CS1 (native, on K562 and Daudi …)", "assay": "FACS, Daudi cells"}, "[3]": {"target": "T2, CS1 ECD-myc-GPI fusion protein on NSO cells (human, UniProt Q9NQ25 23-226, glycosyl phosphatidylinositol linkage for cell surface expression)", "T2 construct": "also called NSO-CS1", "assay": "FACS, NSO-CS1 cells"}, "NSO-FcRn": {"target": "T3, NSO-FcRn", "T3 construct": "negative control transfectant; also called FcRn on NSO cells", "assay": "FACS, NSO-FcRn cells"}, "[4]": {"target": "T4, huCS1 (human CS1 extracellular domain, amino acids 1-227, fused to human gamma 1 Fc) (human, UniProt P01857-1 99-330 = IgG part)", "T4 construct": "domain: human Fc tag; secreted protein in 293/T supernatant; also called human CS1-Fc", "assay": "sandwich ELISA, Fc-captured construct"}, "[5]": {"target": "T5, mu25/hu75 chimeric CS1-Fc (human/mouse chimera; human)", "T5 construct": "entry starts with the signal peptide; not shown: human gamma 1 Fc tag of the NIF Fc vector", "assay": "sandwich ELISA, Fc-captured construct"}, "[6]": {"target": "T6, hu75/mu25 chimeric CS1-Fc (human/mouse chimera; human)", "T6 construct": "entry starts with the signal peptide; not shown: human gamma 1 Fc tag of the NIF Fc vector", "T6 chain": "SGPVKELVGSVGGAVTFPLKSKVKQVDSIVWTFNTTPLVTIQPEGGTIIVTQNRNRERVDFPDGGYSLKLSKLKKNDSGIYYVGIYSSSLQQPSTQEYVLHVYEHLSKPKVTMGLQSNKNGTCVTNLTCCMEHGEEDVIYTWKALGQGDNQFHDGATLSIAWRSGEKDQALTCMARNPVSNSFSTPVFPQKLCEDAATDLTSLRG", "assay": "sandwich ELISA, Fc-captured construct"}, "[7]": {"target": "T7, human CS1-Fc fusion protein (human, UniProt Q9NQ25 23-226, limits assumed)", "T7 construct": "analyte of the BIAcore experiment; not shown: Fc part", "assay": "SPR BIAcore 2000, antibody immobilised, CS1-Fc analyte, bivalent analyte model"}, "[8]": {"target": "T8, CS1 ECD-Fcγ3 fusion protein (human, UniProt Q9NQ25 23-226)", "T8 construct": "also called CS1-G3; CS1-γ3; not shown: constant region of IgG3 (human Fc-γ3)", "assay": "direct binding ELISA, coated human CS1-human Fcγ3"}, "[9]": {"target": "T7, human CS1-Fc fusion protein", "assay": "SPR BIAcore 2000"}, "[10]": {"target": "T2, CS1 ECD-myc-GPI fusion protein on NSO …", "assay": "cell-based or functional assay"}}, "data": [{"binder": "B1", "values": [{"measurement": "FACS (MFI)", "setting": "[1]", "result": 26.2, "unit": "MFI"}, {"measurement": "FACS (MFI)", "setting": "[2]", "result": 10.3, "unit": "MFI"}, {"measurement": "FACS (MFI)", "setting": "[3]", "result": 127, "unit": "MFI"}, {"measurement": "FACS (MFI)", "setting": "NSO-FcRn", "result": "< 5", "unit": "MFI"}, {"measurement": "binding result", "setting": "[4]", "result": "binds"}, {"measurement": "binding result", "setting": "[5]", "result": "no binding (tested: 2 ug/ml)"}, {"measurement": "binding result", "setting": "[6]", "result": "binds"}, {"measurement": "Kd", "setting": "[7]", "result": 173, "unit": "nM"}, {"measurement": "koff", "setting": "[7]", "result": 0.00127, "unit": "s⁻¹"}, {"measurement": "kon", "setting": "[7]", "result": 7480, "unit": "M⁻¹ s⁻¹"}]}, {"binder": "B2", "values": [{"measurement": "binding result", "setting": "[4]", "result": "binds"}, {"measurement": "binding result", "setting": "[5]", "result": "no binding (tested: 2 ug/ml)"}, {"measurement": "binding result", "setting": "[6]", "result": "binds"}]}, {"binder": "B3", "values": [{"measurement": "FACS (MFI)", "setting": "[1]", "result": 15.8, "unit": "MFI"}, {"measurement": "FACS (MFI)", "setting": "[2]", "result": 12.7, "unit": "MFI"}, {"measurement": "FACS (MFI)", "setting": "[3]", "result": 214, "unit": "MFI"}, {"measurement": "FACS (MFI)", "setting": "NSO-FcRn", "result": "< 5", "unit": "MFI"}, {"measurement": "EC50", "setting": "[8]", "result": 0.0661, "unit": "µg/mL"}, {"measurement": "Kd", "setting": "[7]", "result": 34.6, "unit": "nM"}]}, {"binder": "B4", "values": [{"measurement": "EC50", "setting": "[8]", "result": 0.0701, "unit": "µg/mL"}]}, {"binder": "B5", "values": [{"measurement": "fold higher binding affinity than Luc34.1", "setting": "[9]", "result": 28, "unit": "fold"}, {"measurement": "fold higher binding affinity than Luc 63.2", "setting": "[9]", "result": 5.5, "unit": "fold"}, {"measurement": "FACS (MFI)", "setting": "[1]", "result": 9.7, "unit": "MFI"}, {"measurement": "FACS (MFI)", "setting": "[2]", "result": 10.1, "unit": "MFI"}, {"measurement": "cytotoxicity of the target cells (ADCC, LDH release, PBMC effectors 20:1)", "setting": "[10]", "result": "~50", "unit": "%"}, {"measurement": "FACS (MFI)", "setting": "[3]", "result": 237, "unit": "MFI"}, {"measurement": "FACS (MFI)", "setting": "NSO-FcRn", "result": "< 5", "unit": "MFI"}, {"measurement": "binding result", "setting": "[4]", "result": "binds"}, {"measurement": "binding result", "setting": "[5]", "result": "no binding (tested: 2 ug/ml)"}, {"measurement": "binding result", "setting": "[6]", "result": "binds"}, {"measurement": "Kd", "setting": "[7]", "result": 6.29, "unit": "nM"}, {"measurement": "koff", "setting": "[7]", "result": 0.000281, "unit": "s⁻¹"}, {"measurement": "kon", "setting": "[7]", "result": 45600, "unit": "M⁻¹ s⁻¹"}]}]}
